Laboratory results from the DeepSol protein solubility set.

Experiment: soluble on expression in E. coli; label from the status in PepcDB or PDB records

Soluble on expression in E. coli, soluble:
GGSVLAERAGIDPTAILRDFDRGRTSTLPDGRTLREWDIVAVDKDFEIAPGIIFKGWSYNGRIPGPTLWAREGDALRIHFTNAGAHPHTIHFHGVHRATMDGTPGIGAGSIAPGQSFTYEFDATPFGTHLYHCHQSPLAPHIAKGLYGGFIVEPKEGRPPADDEMVMVMNGYNTDGGDDNEFYSVNGLPFHFMDFPVKVKQHELVRIHLINVLEYDPINSFHIHGNFFHYYPTGTMLTPSEYTDTISQVQGQRGILELRFPYPGKFMFHAHKTEFAELGWMGFFEVSA
MSLGDRFYDLISALHKSVRGSAPDAALYWYARILTAGGDPLYVARRLLAIASEDVGNADPRAMQVALAAWDCFSRVGAYEGERAIAQAIIYLSVAPKSNAVYTAFNTAKQQAKDLPDYDVPPHLRNAPTNLMKELGYGTEYRYAHDEPNAYAAGENYFPPELKDTQYYFPTNRGMEIQIKEKLERLREQDKSTEGHHHHHH
MMRVAIFTDTFTPQVNGVAKTLERLTQYFQKEQIAYSVFAPQHTAEDNFVANVNKMRSIPLTILYPECRFSFPTPRIKRELLSFKPDIIHIATPFNMGLCGLYYAKKLNIPVVGSYHTDFDAYLRYYKIEFLSNMLWNYLKWFHSHMQKNFVPSFETLHQLKNKGFQTLSIWGRGVDCTLFHPAYNTDLFRKKYNITAKYVLSYVGRIAPEKDIDTLQHLIVKTAHTRNDIHWLIAGDGPLATSLREAVPKTNITFTGYLQGGDLAEAYACSNIMVFPSATETFGNVVLESLACGTPVIGANSGGVKNIITDGKTGVLCPPKNEDAFLSSIYFLLQNEEKLEQMGIESSSFAKSKSWDEVFRGLLNQYEEVLQHNASELLALEHHHHHH
VAKPKKTQPAATAPRVDVFDAKGKPKTVDASALRIAFADGRSLLVSLPDTADGAITLVAEHADAATHAMLALRPEHHDSITLRIEAEPAAEAEDADDALAGAEMLTLDLTVQHGDALKAAARKALPKQKDIEAWIAPALFADAQLNVRFVDEEEGRTLNHTYRGKDYATNVLTFSYAETEDDPVAADIVLCCPVVEQEAKDQGKPLRAHYAHLIVHGALHAQGYDHEDPAQAEEMEGIETEVLAGLGFPDPYADR
MSLKILLLVAISCLFVACSNDKEKQQNDVNLSTEASINQSDDMNFKLNLIDGGSISVKKENAVLNFNDEDKVTLFVFFTTWCTPCIAEIPHLNKLQEKYNNDFNIVGVLLEDKSNDEIQKFIEQHKISYKVANGENNYLLAKALGGVNGIPTMFLYNKHSKLINQYLGLIPEEMLEIDIQKAILEGGSHHHHHH
GMHLKEKITTIIQGQRTGVLSTVRNDKPHSAFMMFFHEDFVLYVATDRQSKKITDIENNPNVHVLLGREGKKLDEDYIEVEGLASIEEDSTLKNKFWNNSLKRWLLRPEDPNYVLIKINPDTIYYIDGAGTTEPEFLRL
MAGSGVAKQIFALDFEIFGRVQGVFFRKHTSHEAKRLGVRGWCMNTRDGTVKGQLEAPMMNLMEMKHWLENNRIPNAKVSKAEFSQIQEIEDYTFTSFDIKH
MGHHHHHHGGHMSLDEFDLIHSITPRTIHHSSVDVGIGDDAALYTAKHGVQEIVCVDTMVEDVHFKLHYSSPEDIGYKALAVNISDIAAMGGIPKFYLVSLAVPSKWTESEIKAMYEGMNELAKLYHMDLIGGDTVSTADKLVVTVTVIGEIEKGQACLRSLAKPNDIVFVTGEIGSSAAGLSLLLEETNPQNSSVETDYFIHRHKRPEPRVSVGRLCSIFKRAALNDVSDGLASELNEIAEASCVSIEIVESMLPIHSDLPKLHPNWKEWALFGGEDFELTGTVSNEEWEVLKQECAALHLPITKIGYVREKTKSKVILKTDQTSMILEKKGYNHFEGGS
MSLTQHTRNFSFKVLTINTHKGFTAFNKRFILPELRDAVRTVGADIVCLQEVMGAHEVHPLHIENWPDTTHYEFLADTMWSDFAYGRNAVYPEGHHGNAVLSRYPIEHYENRDVSVGGSEKRGVLYCRITPPMLNRPIHVMCVHLGLRESHRQAQLTMLAGWVNALPESEPVLVAGDFNDWRQKAGPPLNAAGLEEIFTRAHGRPARTFPVSMPLLRLDRIYVKNANASSPTALPLRNWRHLSDHAPLSAEIHLEGHHHHHH
MSLKITLFGGAGFLGSHVCDKLSEAGHDVTVVDLRPSPYLRPDQTMITGNILDEELVARAVEGADMVFNYAGIADIGEANRRPVDTARINVLGNVIALEACRKAGVKRYVFASSLYVYGKSGGFYRCSKQACELYIENYQAMHGLDYTILRYGSLYGSRADIRNAINRFVAEALEKGAITYYGSPTALREYIHVEDAALCTVEVLKPEYANENIVLSGNQPMRVGDLFKMIGEMLGKDIEVVYQHDPNSGHYQITPYAFMPKVGKKMTPILTTDLGQGILRVMEDVHREMHPDMHDVGGYLVSKDEGHHHHHH

Soluble on expression in E. coli, not soluble:
MKKILVTGSLGQIGSELVMKLRDVYGASNVIATDIRETDSEVVTSGPFETLDVTDGQKLHDIAKRNEVDTIIHLAALLSATAEKNPLFAWNLNMGGLVNALEAARELNCKFFTPSSIGAFGPSTPKDNTPQDTIQRPTTMYGVNKVAGELLCDYYHQKFGVDTRGVRFPGLISYVAPPGGGTTDYAVEIYYEAIKKGAYTSYIAEGTYMDMMYMPDALQAIISLMEADPSKLVHRNAFNITAMSFEPEQIAASIRKHIPTFTMDYAVDPARQTIADSWPNSIDATAAMKEWGFKAEYDLDKMTTDMLAKLKKKLTAELVMN
MGSDKIHHHHHHMRIAFSTLGCPQAPLHEVTALAREHRVDGLELRIHDDGIVSDHMDRSRREQVRASISRTGLTVLSLGSYIKVCQPGPDETVVRQLRTALELAADVGAEAVRVFPGAGTGPTTDHYGIAVTELDMRGSSRLAAAAPIAERLGLRLLLETHDSHPRGVDISRILAPFRAEDPVGAIWDVMHPWRFGEDPVQTAHQLGSHYQYVQFKDATMDRQTGNLTMTLPGAGDIPLQRILDLVVARTPTTEEPWISLEWEKAWHPELPGLPEALIAFKTLLGRPESDAALSGSPRRPGSAAGARRNGTL
MAVNPATGKSDFVMMSEQQELGMGARYNQEILKQFPRYNDEKLQAYVQRVGERVARSSHRSNLQYHFTVIDSPDINAFALPGGYIYIHRGLIAYLGSEAELAAVLGHEVGHVTARHSVRQQSQASAWNILGQAVAIGTGVGAAGDLANVLGTAFVRGYGRDMELEADGLGAQYLARAGYDPTAMIQVVRVLKNQEDFAREEAARNGQAVQAGGYHGLFDTHPDNDRRLQEVVGPARQLANGQQEVGREVFLRHLEGMPFGDSASAGVRRGQNFYHAELDFTLSYPAGWKILNQPSALLGYPADEQSFIGMKLVPHDSRLTPAEFLRKNAGQRLAQEESLKQAGLNGYTAVVPGNPARRVAVIYQGDRAYLFVGVVKVGSLETQDDRFLSVIRSFRPLRDKERALAQPRRLHLVQVKAGQTLEQLAAGGEGSLSDSVARLRLLNDLYPSGEPRPGDWLKVVRLEHHHHHH
MGSDKIHHHHHHMQMNLGLDVGYGDVKAVYQREGILEMLKFPTAIAYAEREVGDLSAFAGGEEYEYRGRKYFVGREALVGAFSTRSFEFMKRYSPLFVFKAVKKIHRRTGELVTDVAMGLPLSHYTEANLKELVPLLQRIEVGREVLELNARFYPQGLGVLADYRLSQAGDVNARTDRDMIILDIGFNTVDVIVVERGRIVKGESDTLERHGVSKISLDLAREIKVRMQLDLSEQESKDVLRQGRIRVYGAERDLAELVRESAEKYMDWLIQEVHSKWMARIQRAEKVIIAGGGAYYLQEHIPEEYLPLVHVPDHPEYANARGFLKALDVESGK
MGSDKIHHHHHHMISATNWVPRGFSSEFPEKYVLDDEEVERINQLAQLNLDDAKATLEEAEGESGVEDDAATGSSNKLKDQLDIDDDLKEYNLEEYDDEEIADNEGGKDVSMFPGLSNDSDVKFHEGEKGEDPYISLPNQEDSQEEKQELQVYPSDNLVLAARTEDDVSYLDIYVYDDGAGFHSSDIPVEEGDEADPDVARGLVRDPALYVHHDLMLPAFPLCVEWLDYKVGSNSEEAANYAAIGTFDPQIEIWNLDCVDKAFPDMILGEPLDNSMVSLKSKKKKKKSKTGHITTHHTDAVLSMAHNKYFRSVLASTSADHTVKLWDLNSGNAARSLASIHSNKNVSSSEWHMLNGSILLTGGYDSRVALTDVRISDESQMSKYWSAMAGEEIETVTFASENIILCGTDSGNVYSFDIRNNENRKPVWTLKAHDAGISTLCSNKFIPGMMSTGAMGEKTVKLWKFPLDDATNTKGPSMVLSRDFDVGNVLTSSFAPDIEVAGTMVIGGVNKVLKLWDVFTNRSVRKSFKSELENVQARAKEEAQKIGKSSRIARKYTSNDNPDTVITIDDQGEDEEEREGGDEHDDMA
MSLVTIYDVAAKAGVSIKTVSRVMNNEPNVRPVMRERVLAAAGELGYSPNLSARSLAGSRSFVIAVFVDAALTIDHWQSERGADYLSRIQLGATLVCRDAGYHLLIELIDHEGPQVRQEVAALLAALKPDGVILTPPSSDNAVVLELLDRAGTPYVRVGPERAEGLGPRVHMDDVAAAREMTDHLIGLGHKRIGFIVGEPRYGASQARRDGYLEAMRAKGLSVPEFWVRQGDFTFQSGLEQAKALLALPERPTAIFASNDDMALGAIAAIADAGLMTPGDVSVAGFDDSPSSRFSRPQLTTVRQPVAEMSSVAAKLLIERSRGGASTERPVDELLPFTLIHRASTEGHHHHHH
MNNQLTEITVVRRQSAPRLEFEAAAIYEYPEHLRPFLSEAPALPGVYIFHSESDTLPLYIGKSVNIRSRVLSHLRTPDEATMLRQARRISWICTAGEMGALLLEARLIKEQQPLFNKRLRRNRQLCSLQLSEQKIEVVSARSVDFSHEPNLFGLFANRRAALQSLQNLADEQKLCYGLLGLEPVSRGRACFRFALKRCAGACCGQETPQAHFLRLQASLERLRVVCWPWKGAIALKESRPQMTQFHIINNWLWLGAVPSLDEAATLVRTPAGFDQDGYKILCKPLMSGQYEIIELHTDCRQS
MPQPKKDKPDTPLRSDAQRNRERILAVATEELTHCANAPLSAIAKKAGVGQGTFYRNFPNREALVLEIYRYGMQQVAEAAPEMLATGEPDLALRQWMDRLAEFAMTKAGLADAIRLVTSAPGAPEKPRPTPLEDAAELLLRANHEAGTIRPGVTGDDFFLVLGGLWLIDPGENWQPRVTRFLDLVMDGLRAGAPGR
MSLTASDQFNSTHSAVDQYAELVLHNGRMYTLDPAQPWADAVAIRQGKLIAVGSLASLASLIGPNTRQHDLDGAFCMPGLHDMHTHPDLALAPRYADDLDVGIEDPTPEQLAAAIHAYADSHPGDGWIYGQYWVRYTFREAGLTPGREWLDSVMPHRPVALLDRMWGTMMVNSKALELAGIDRHTSDPRNGYLERDELTGEPNGLLIDGAYALIHAAMPPTPVSVLRRAYRDGVHFQTSRGVTATKYVHVCENRLQALKELDDAGELTLRVEAAISWQDDIFPVRRRWELLSGERHFYRSARLSANAVKFHFDGTVEPKSSYLLTPWPEESSWRGKLNLTPEHITDMVVDMDKRGLRVIAHCTGDGASDVFLDAVAEARRRNGNSGIRHQCAHSTLLHPGNLKRFQALDVIAEFSPAAWYPTPFASGARSGYGQERLKRIYDFKGVLAAGGIAVFGTDWPVASIDPWLALETMVTRQNPWNQEPDTFGDPISLEQALQVATLNGAHAMGLEHLTGSLEAGKSADLIVLDRDLFAQGARNYIHHTQVQLTFVEGQLVYDRQGTEGHHHHHH
MTIYTCTLNLAIDLFIETEELVPFVVNRTKEDDIQANGKGVNVSLILKMLGIDNTALGVKAGFTGNYVEDYLKEKEITTDFIEVAGTTRINVFTKVTQDQKEYKLVNKGPKLSEEHVQRFLKKISELRKGDYLCVSGSLPQGVSPSILIEISRICFEKQVFLILDSSYEEILDCLPYQPFLLKPNEEELQEWFHTEVQTKDDYIFYGQELLKRGAKNILLSLGSEGALFMNNEKVLSGNSPTGMVVNTACSGDAMLGTFLAGWHQGLSLEKNLKRSIAAGSSTAFRKGLTDFSDVQELEQQIKIQEEE
